Measured values reported in PMC4043820.

Legend:
[1] = target: OsWRKY53SA S43A;S72A;S77A;S89A;S96A;S108A (Oryza sativa (rice)) (UniProt A7BEY7); test: EMSA; conditions: 12 mM HEPES-KOH pH 8.0, 60 mM KCl, 4 mM MgCl2, 1 mM EDTA, 12% glycerol, 1 mM DTT, 2.5 mM PMSF, 0.1 ug protein in 20 ul, 20 min on ice; 6% PAGE in 1x TBE at …
[2] = target: OsWRKY53SD S43D;S72D;S77D;S89D;S96D;S108D (Oryza sativa (rice)) (UniProt A7BEY7); test: EMSA; conditions: 12 mM HEPES-KOH pH 8.0, 60 mM KCl, 4 mM MgCl2, 1 mM EDTA, 12% glycerol, 1 mM DTT, 2.5 mM PMSF, 0.1 ug protein in 20 ul, 20 min on ice; 6% PAGE in 1x TBE at …
Chain of OsWRKY53SD S43D;S72D;S77D;S89D;S96D;S108D (Oryza sativa (rice)) (A7BEY7 entry or part of it S43D S72D S77D S89D S96D S108D): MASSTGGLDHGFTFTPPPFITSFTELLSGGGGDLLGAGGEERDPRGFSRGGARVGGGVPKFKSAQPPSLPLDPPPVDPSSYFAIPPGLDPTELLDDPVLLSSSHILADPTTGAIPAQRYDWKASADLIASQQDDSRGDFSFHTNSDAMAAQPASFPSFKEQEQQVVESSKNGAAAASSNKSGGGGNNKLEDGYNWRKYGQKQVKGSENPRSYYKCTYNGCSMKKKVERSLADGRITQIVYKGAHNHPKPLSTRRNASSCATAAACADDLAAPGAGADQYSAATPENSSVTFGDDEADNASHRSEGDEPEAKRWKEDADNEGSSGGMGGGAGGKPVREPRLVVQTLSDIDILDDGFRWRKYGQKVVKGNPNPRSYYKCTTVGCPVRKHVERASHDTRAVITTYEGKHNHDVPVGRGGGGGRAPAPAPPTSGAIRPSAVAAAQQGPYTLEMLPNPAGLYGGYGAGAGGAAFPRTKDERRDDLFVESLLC

Chain of OsWRKY53SA S43A;S72A;S77A;S89A;S96A;S108A (Oryza sativa (rice)) (A7BEY7 entry or part of it S43A S72A S77A S89A S96A S108A): as the sequence (A7BEY7 entry or part of it S43D S72D S77D S89D S96D S108D) above, with D43A, D72A, D77A, D89A, D96A, D108A counted along it

TTTGGGGATGCTTCGGCGAAGGGGGTGAGGTCAAAGCTCGTGCGGTTTGACCGGTCAGACGAGGCGGCTGAGGCTCGCGC (double strand) [W-box probe (W)]
binding [1]: binds | binding [2]: binds
